Key:
Assay in all cases: bead flow cytometry, AUC minus CD4
[1] = target: T1, HCoV-NL63 spike protein (Sino Biological 40604-V08B) (HCoV-NL63, UniProt Q6Q1S2 19-1296)
T1 sequence: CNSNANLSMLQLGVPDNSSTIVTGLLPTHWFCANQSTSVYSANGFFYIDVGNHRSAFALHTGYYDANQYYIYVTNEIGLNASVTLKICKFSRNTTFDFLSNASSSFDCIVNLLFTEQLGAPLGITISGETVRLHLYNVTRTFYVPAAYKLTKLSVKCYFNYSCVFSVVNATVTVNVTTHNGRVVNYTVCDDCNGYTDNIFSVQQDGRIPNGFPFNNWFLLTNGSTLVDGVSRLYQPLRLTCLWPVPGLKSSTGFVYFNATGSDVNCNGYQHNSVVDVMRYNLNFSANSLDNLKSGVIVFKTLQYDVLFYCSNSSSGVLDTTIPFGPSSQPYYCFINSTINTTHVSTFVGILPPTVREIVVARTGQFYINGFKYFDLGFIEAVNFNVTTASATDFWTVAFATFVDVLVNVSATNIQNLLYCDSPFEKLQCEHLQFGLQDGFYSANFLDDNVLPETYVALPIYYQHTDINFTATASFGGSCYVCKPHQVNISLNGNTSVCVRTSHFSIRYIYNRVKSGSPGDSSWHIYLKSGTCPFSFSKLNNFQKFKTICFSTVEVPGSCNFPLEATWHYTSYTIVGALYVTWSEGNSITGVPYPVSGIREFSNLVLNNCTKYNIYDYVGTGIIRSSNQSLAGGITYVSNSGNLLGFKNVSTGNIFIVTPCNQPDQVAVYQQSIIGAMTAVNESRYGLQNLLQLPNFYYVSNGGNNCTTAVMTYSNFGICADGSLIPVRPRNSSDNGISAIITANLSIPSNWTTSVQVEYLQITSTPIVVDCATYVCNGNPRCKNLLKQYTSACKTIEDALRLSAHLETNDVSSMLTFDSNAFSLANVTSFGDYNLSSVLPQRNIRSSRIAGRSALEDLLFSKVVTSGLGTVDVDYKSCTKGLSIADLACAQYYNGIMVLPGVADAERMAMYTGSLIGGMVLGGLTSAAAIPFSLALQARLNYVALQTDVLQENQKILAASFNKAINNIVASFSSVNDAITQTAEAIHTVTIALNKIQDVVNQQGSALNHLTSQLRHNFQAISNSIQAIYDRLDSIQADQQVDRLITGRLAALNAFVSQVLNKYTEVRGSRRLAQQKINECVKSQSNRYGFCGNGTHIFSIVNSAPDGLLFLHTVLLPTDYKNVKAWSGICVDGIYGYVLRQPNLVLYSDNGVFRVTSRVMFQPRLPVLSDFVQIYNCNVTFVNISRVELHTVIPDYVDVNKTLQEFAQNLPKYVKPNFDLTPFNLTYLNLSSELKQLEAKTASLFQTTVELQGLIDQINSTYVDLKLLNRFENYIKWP

[2] = target: T2, HCoV-229E spike protein (Sino Biological 40605-V08B) (HCoV-229E, UniProt P15423 16-1115)
T2 sequence: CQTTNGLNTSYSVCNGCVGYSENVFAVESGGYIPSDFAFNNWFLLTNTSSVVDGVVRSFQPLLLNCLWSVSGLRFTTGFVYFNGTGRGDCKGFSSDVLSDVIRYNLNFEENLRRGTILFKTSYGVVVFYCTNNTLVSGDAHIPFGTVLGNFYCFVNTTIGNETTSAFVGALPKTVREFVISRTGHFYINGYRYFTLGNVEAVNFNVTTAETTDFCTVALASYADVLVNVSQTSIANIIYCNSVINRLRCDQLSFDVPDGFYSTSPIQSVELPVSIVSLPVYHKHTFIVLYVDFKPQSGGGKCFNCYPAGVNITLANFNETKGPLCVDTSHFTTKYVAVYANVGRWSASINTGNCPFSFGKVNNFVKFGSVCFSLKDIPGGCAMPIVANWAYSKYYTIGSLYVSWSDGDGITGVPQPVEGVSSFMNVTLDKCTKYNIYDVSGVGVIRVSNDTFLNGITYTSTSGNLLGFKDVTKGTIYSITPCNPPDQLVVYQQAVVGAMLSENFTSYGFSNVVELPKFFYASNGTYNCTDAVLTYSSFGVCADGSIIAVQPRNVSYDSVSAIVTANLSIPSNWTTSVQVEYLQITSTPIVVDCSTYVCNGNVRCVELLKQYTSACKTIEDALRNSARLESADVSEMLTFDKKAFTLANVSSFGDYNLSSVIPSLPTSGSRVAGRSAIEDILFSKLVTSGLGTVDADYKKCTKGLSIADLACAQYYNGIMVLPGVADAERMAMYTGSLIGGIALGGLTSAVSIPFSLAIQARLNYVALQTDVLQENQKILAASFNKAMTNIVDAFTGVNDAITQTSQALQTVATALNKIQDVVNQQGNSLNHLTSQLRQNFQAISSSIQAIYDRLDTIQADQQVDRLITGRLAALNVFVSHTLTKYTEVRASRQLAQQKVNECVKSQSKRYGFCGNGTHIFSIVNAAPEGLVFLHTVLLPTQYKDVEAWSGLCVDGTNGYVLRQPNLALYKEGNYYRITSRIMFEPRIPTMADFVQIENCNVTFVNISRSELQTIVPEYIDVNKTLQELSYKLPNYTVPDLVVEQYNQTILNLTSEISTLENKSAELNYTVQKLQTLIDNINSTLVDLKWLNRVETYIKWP

[3] = target: T3, SARS-CoV-2 spike S2 subunit, recombinant (SARS-CoV-2, UniProt P0DTC2 686-1213)
T3 construct: domain: S2 subunit

[4] = target: SARS-CoV-2 spike receptor binding domain (RBD), recombinant (SARS-CoV-2, UniProt P0DTC2 319-541)
[5] = target: SARS-CoV-2 spike N-terminal domain (NTD), recombinant (SARS-CoV-2, UniProt P0DTC2 14-305)
MERS-CoV spike protein = target: T4, MERS-CoV spike protein (MERS-CoV, UniProt K9N5Q8 18-1291)
T4 sequence: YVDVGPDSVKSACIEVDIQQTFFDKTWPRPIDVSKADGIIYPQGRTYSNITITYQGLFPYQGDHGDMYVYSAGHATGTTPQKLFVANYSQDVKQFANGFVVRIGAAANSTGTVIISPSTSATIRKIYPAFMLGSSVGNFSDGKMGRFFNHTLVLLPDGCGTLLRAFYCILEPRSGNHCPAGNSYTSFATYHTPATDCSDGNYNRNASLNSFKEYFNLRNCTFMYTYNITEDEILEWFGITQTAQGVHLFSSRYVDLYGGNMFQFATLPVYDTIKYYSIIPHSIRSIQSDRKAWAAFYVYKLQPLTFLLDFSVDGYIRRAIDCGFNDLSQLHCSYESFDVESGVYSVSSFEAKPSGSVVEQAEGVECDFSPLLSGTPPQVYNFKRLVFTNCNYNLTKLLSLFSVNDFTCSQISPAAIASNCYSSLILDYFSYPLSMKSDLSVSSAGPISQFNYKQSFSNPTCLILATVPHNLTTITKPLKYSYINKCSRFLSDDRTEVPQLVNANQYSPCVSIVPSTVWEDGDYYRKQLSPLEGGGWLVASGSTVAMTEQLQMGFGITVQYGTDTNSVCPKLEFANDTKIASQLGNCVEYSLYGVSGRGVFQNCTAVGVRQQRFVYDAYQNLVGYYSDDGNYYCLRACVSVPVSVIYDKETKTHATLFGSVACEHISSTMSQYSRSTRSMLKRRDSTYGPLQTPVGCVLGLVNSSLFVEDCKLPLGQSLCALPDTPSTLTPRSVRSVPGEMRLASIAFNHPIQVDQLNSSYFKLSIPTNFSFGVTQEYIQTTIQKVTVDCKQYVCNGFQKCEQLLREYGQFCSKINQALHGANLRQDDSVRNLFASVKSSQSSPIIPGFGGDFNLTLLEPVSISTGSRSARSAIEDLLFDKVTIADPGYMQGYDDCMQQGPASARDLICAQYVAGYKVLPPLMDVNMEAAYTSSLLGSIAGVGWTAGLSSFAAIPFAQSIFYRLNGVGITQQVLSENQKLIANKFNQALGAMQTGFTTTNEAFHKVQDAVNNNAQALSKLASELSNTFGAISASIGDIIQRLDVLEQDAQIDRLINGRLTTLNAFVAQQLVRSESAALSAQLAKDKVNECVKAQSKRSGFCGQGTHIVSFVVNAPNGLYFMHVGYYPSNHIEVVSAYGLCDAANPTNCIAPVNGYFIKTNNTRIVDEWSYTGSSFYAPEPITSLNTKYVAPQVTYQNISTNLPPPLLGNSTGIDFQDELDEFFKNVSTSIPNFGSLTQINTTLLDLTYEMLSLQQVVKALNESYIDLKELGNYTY

Measured: binding result

B1: COV89-28 (antibody, V domains shown)
VH: EVQLVESGGGLVQPGRSLRLSCAASGFTFDDYAMHWVRQAPGKGLEWVSSISWNSGSIVYADSVTGRCTITRDNAKNSLYLQMNSLRPEDTALYYCAKGYSSSPVVYYMDVWGKGTTVTVSS
VL: DIQMTQSPSSVSASVGDRVTITCRASQGIAGWFAWYQQKPGKAPKLLIYATSSLQRGVPSRFSGSGSATHFTLTITSLQPEDFATYYCQQANIFGPGTKVDIK
not listed: MERS-CoV spike protein
no binding (tested: 200 µg/mL): all other assays above

B2: COV57-01 (antibody, V domains shown)
VH: QVQLVESGGGVVQPGRSLRLSCTVSGFTFNNYGMHWVRQAPGKGLEWLAVISYEGSKKFYADSLEGRFSISRDSSKNTLYLQMNSLTIEDTAVYFCAKRNSIFWFGEGRKDAFDVWGQGTRVIVSS
VL: DIQLTQSPSSLSASVGDRVTITCRASQTVDNYLNWYQQLPGKAPKLLIHTASTLQSGVPSRFSATSSGTDFTLTISGLQPDDSATYFCQQSYSVPLTFGGGTKVEIKV
no binding (tested: 200 µg/mL): MERS-CoV spike protein | [1]

B3: COV89-03 (antibody, V domains shown)
VH: QVQLQESGPGLVKPSETLSLTCTVSGGSIRSNYWSWIRQPPGKRLEWLGYIYYSGSTNYNPSLKSRVTISVDTSKNQFSLNLSSVTAADTAVYYCVREMPYNWIDPWGQGTLVTVSS
VL: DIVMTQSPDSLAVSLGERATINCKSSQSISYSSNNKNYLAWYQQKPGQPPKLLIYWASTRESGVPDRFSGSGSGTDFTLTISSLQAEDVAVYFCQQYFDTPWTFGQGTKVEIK
no binding (tested: 200 µg/mL): [1] | [2] | [4] | [5]

B4: COV93-04 (antibody, V domains shown)
VH: QLQLQESGSGLVKPSQTLSLTCVVSGDSISSGGYSWSWIRQQPGKALEWIGYIYHSGVTNYNPSLKSRVTISVDRSTNQFSLKLSSVTAADTAVYYCARDGKYNWFDPWGQGILVTVSS
VL: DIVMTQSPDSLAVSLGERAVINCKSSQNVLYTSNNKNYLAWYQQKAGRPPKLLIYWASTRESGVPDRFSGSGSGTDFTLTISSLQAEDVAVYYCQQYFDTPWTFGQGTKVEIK
not listed: MERS-CoV spike protein
no binding (tested: 200 µg/mL): all other assays above

B5: COV49-42 (antibody, V domains shown)
VH: QVHLVQSGAEVKNPGVSVKVSCKASGYTFTTSGITWVRQAPGQGLEWMGWISTYNGNTETAQTFQGRVTMTTDTSTSTAYMELRRLRSDDTAVYYCARVQSVATSSNYFFDYWGQGTRVTVSS
VL: DIQMTQSPSSLSASVGDRVTITCRASQTIDRFLNWYQQKPGKAPKLLIYAASRLQSGVPSRFSGSGSGTTYTLTISSLQPEDFATYFCQQSYSDPRALTFGGGTKVEIK
not listed: MERS-CoV spike protein
no binding (tested: 200 µg/mL): all other assays above

B6: COV77-02 (antibody, V domains shown)
VH: QVQLVESGGGVVQPGRSLRLSCAASGFTFSDHGMHWVRQAPGKGLQWVALIWYDGSNMFYRDSVKGRFTISRDNSKNTVYLEMSSLRAEDTALYYCARGTDVWSGLSLDALDVWGQGTMVTVSP
VL: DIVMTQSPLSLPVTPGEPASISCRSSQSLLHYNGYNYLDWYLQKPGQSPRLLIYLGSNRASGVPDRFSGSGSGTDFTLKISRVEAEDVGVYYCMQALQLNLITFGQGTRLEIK
not listed: MERS-CoV spike protein
no binding (tested: 200 µg/mL): all other assays above
